Assay results taken from US20150344570A1 (published 2015).

T1: FcγRIIb extracellular domain with C-terminal His tag (human, UniProt P31994 43-217)
T1 construct: extracellular domain; soluble analyte in Biacore; also called FcgRIIb; not shown: His tag at the C terminus
T1 sequence (looked up): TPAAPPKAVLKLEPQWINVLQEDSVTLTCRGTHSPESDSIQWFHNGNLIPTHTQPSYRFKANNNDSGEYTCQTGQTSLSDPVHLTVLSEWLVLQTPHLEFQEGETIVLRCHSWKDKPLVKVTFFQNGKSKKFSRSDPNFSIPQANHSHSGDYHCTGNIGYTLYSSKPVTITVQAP


Assays:
[1] = target: T2, FcγRIa extracellular domain with C-terminal His tag (human, UniProt P12314 16-292); test: SPR; He/Con_1a divided by He/Con_2b (FcγRIa against FcγRIIb)
T2 construct: extracellular domain; soluble analyte in Biacore; also called FcgRI; not shown: His tag at the C terminus
T2 sequence (P12314 16-292): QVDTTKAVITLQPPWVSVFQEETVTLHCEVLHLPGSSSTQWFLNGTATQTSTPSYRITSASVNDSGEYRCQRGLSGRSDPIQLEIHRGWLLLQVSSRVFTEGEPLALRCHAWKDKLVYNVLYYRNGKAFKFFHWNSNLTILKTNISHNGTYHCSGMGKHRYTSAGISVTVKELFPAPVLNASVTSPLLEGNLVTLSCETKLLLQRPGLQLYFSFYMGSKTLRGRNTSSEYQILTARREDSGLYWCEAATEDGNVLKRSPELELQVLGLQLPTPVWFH
Procedure: The heterodimerized antibodies He Abs in which one of the H chains was introduced with an alteration were assayed for their binding activities to each activating FcγR and inhibitory FcγR according to the method described in Example 4. […] The activating FcγRs in FIGS. 26, 27, 28, and 29 are FcγRIa, FcγRIIa (R), FcγRIIa (H), and FcγRIIIa, respectively.
Analysis of interaction between objective antibody and the FcγR was carried out using Biacore T100 (GE Healthcare). HBS-EP+ (GE Healthcare) was used as the running buffer, and the measurement temperature was set to 25° C. Chips produced by immobilizing the antigen peptide by the amine coupling method to a Series S Sencor Chip CM5 (GE Healthcare), or alternatively, chips produced by allowing preliminarily biotinylated antigen peptides to interact with and immobilize onto a Series S Sensor Chip SA (certified) (GE Healthcare) were used. Antibodies of interest were captured onto an antigen peptide-immobilized chip, and allowed to interact to each FcγR diluted with running buffer. To regenerate and repeatedly use the chip, the antibodies captured on the chip were washed off by reacting 10 mM glycine-HCl, pH 1.5.

[2] = target: T1, FcγRIIb extracellular domain with …; test: SPR, binding relative to GpH7-A5/GpH7-B3/GpL16-k0 = 100
[3] = target: T2, FcγRIa extracellular domain with …; test: as above

| Binder | He_1a/2b (Ia/IIb) [1] [ratio] | He/Con_2b [2] | He/Con_1a [3] |
| --- | --- | --- | --- |
| GpH7-A5/GpH7-B3 variant D270_07I/GpL16-k0 (antibody, human IgG1, kappa, change in the GpH7-B3 H chain only; also called He Ab) heavy 1: not shown heavy 2: not shown light: DIVMTQSPLSLPVTPGEPASISCQASESLVHSNRNTYLHWYLQKPGQSPQLLIYKVSNRFSGVPDRFSGSGSGTDFTLKISRVEAEDVGVYYCSQNTHVPPTFGQGTKVEIERTVAAPSVFIFPPSDEQLKSGTASVVCLLNNFYPREAKVQWKVDNALQSGNSQESVTEQDSKDSTYSLSSTLTLSKADYEKHKVYACEVTHQGLSSPVTKSFNRGEC | 1.8 | 41.5 % of control | 74.6 % of control |
| GpH7-A5/GpH7-B3 variant D270_08L/GpL16-k0 (antibody, human IgG1, kappa, change in the GpH7-B3 H chain only; also called He Ab) heavy 1: not shown heavy 2: not shown light: DIVMTQSPLSLPVTPGEPASISCQASESLVHSNRNTYLHWYLQKPGQSPQLLIYKVSNRFSGVPDRFSGSGSGTDFTLKISRVEAEDVGVYYCSQNTHVPPTFGQGTKVEIERTVAAPSVFIFPPSDEQLKSGTASVVCLLNNFYPREAKVQWKVDNALQSGNSQESVTEQDSKDSTYSLSSTLTLSKADYEKHKVYACEVTHQGLSSPVTKSFNRGEC | 1.37 | 53.6 % of control | 73.5 % of control |
| GpH7-A5/GpH7-B3 variant D270_02A/GpL16-k0 (antibody, human IgG1, kappa, change in the GpH7-B3 H chain only; also called He Ab) heavy 1: not shown heavy 2: not shown light: DIVMTQSPLSLPVTPGEPASISCQASESLVHSNRNTYLHWYLQKPGQSPQLLIYKVSNRFSGVPDRFSGSGSGTDFTLKISRVEAEDVGVYYCSQNTHVPPTFGQGTKVEIERTVAAPSVFIFPPSDEQLKSGTASVVCLLNNFYPREAKVQWKVDNALQSGNSQESVTEQDSKDSTYSLSSTLTLSKADYEKHKVYACEVTHQGLSSPVTKSFNRGEC | 1.48 | 48.3 % of control | 71.5 % of control |
| GpH7-A5/GpH7-B3 variant D270_19Q/GpL16-k0 (antibody, human IgG1, kappa, change in the GpH7-B3 H chain only; also called He Ab) heavy 1: not shown heavy 2: not shown light: DIVMTQSPLSLPVTPGEPASISCQASESLVHSNRNTYLHWYLQKPGQSPQLLIYKVSNRFSGVPDRFSGSGSGTDFTLKISRVEAEDVGVYYCSQNTHVPPTFGQGTKVEIERTVAAPSVFIFPPSDEQLKSGTASVVCLLNNFYPREAKVQWKVDNALQSGNSQESVTEQDSKDSTYSLSSTLTLSKADYEKHKVYACEVTHQGLSSPVTKSFNRGEC | 1.63 | 48 % of control | 78.2 % of control |
| GpH7-A5/GpH7-B3 variant E269_19Q/GpL16-k0 (antibody, human IgG1, kappa, change in the GpH7-B3 H chain only; also called He Ab) heavy 1: not shown heavy 2: not shown light: DIVMTQSPLSLPVTPGEPASISCQASESLVHSNRNTYLHWYLQKPGQSPQLLIYKVSNRFSGVPDRFSGSGSGTDFTLKISRVEAEDVGVYYCSQNTHVPPTFGQGTKVEIERTVAAPSVFIFPPSDEQLKSGTASVVCLLNNFYPREAKVQWKVDNALQSGNSQESVTEQDSKDSTYSLSSTLTLSKADYEKHKVYACEVTHQGLSSPVTKSFNRGEC | 2.37 | 44.3 % of control | 105 % of control |
| GpH7-A5/GpH7-B3 variant D270_14T/GpL16-k0 (antibody, human IgG1, kappa, change in the GpH7-B3 H chain only; also called He Ab) heavy 1: not shown heavy 2: not shown light: DIVMTQSPLSLPVTPGEPASISCQASESLVHSNRNTYLHWYLQKPGQSPQLLIYKVSNRFSGVPDRFSGSGSGTDFTLKISRVEAEDVGVYYCSQNTHVPPTFGQGTKVEIERTVAAPSVFIFPPSDEQLKSGTASVVCLLNNFYPREAKVQWKVDNALQSGNSQESVTEQDSKDSTYSLSSTLTLSKADYEKHKVYACEVTHQGLSSPVTKSFNRGEC | 1.22 | 57.8 % of control | 70.6 % of control |
| GpH7-A5/GpH7-B3 variant D270_12R/GpL16-k0 (antibody, human IgG1, kappa, change in the GpH7-B3 H chain only; also called He Ab) heavy 1: not shown heavy 2: not shown light: DIVMTQSPLSLPVTPGEPASISCQASESLVHSNRNTYLHWYLQKPGQSPQLLIYKVSNRFSGVPDRFSGSGSGTDFTLKISRVEAEDVGVYYCSQNTHVPPTFGQGTKVEIERTVAAPSVFIFPPSDEQLKSGTASVVCLLNNFYPREAKVQWKVDNALQSGNSQESVTEQDSKDSTYSLSSTLTLSKADYEKHKVYACEVTHQGLSSPVTKSFNRGEC | 3.63 | 18.3 % of control | 66.3 % of control |
| GpH7-A5/GpH7-B3 variant D270_18N/GpL16-k0 (antibody, human IgG1, kappa, change in the GpH7-B3 H chain only; also called He Ab) heavy 1: not shown heavy 2: not shown light: DIVMTQSPLSLPVTPGEPASISCQASESLVHSNRNTYLHWYLQKPGQSPQLLIYKVSNRFSGVPDRFSGSGSGTDFTLKISRVEAEDVGVYYCSQNTHVPPTFGQGTKVEIERTVAAPSVFIFPPSDEQLKSGTASVVCLLNNFYPREAKVQWKVDNALQSGNSQESVTEQDSKDSTYSLSSTLTLSKADYEKHKVYACEVTHQGLSSPVTKSFNRGEC | 1.68 | 40.3 % of control | 67.8 % of control |
| GpH7-A5/GpH7-B3 variant D270_13S/GpL16-k0 (antibody, human IgG1, kappa, change in the GpH7-B3 H chain only; also called He Ab) heavy 1: not shown heavy 2: not shown light: DIVMTQSPLSLPVTPGEPASISCQASESLVHSNRNTYLHWYLQKPGQSPQLLIYKVSNRFSGVPDRFSGSGSGTDFTLKISRVEAEDVGVYYCSQNTHVPPTFGQGTKVEIERTVAAPSVFIFPPSDEQLKSGTASVVCLLNNFYPREAKVQWKVDNALQSGNSQESVTEQDSKDSTYSLSSTLTLSKADYEKHKVYACEVTHQGLSSPVTKSFNRGEC | 1.7 | 44.2 % of control | 75.3 % of control |
